# Key:
# [1] = biological target: hCD37-Fc-LAGA (amino acids 107 to 235 of human CD37 fused to human IgG1 Fc-domain) (human); experiment: ELISA, native hCD37-Fc-LAGA coated on the plate, antibody at 2.5 µg/mL
# [2] = biological target: hCD37-LEL (Large Extracellular Loop; amino acids 107 to 242 of human CD37 with a 6xHis-tag) (human); experiment: ELISA, denatured-reduced hCD37-LEL coated on the plate, antibody at 10 µg/mL
# [3] = biological target: hCD37-LEL (Large Extracellular Loop; amino acids 107 to 242 of human CD37 with a 6xHis-tag) (human); experiment: ELISA, denatured-reduced hCD37-LEL coated on the plate, antibody at 2.5 µg/mL
# [4] = biological target: hCD37-Fc-LAGA (amino acids 107 to 235 of human CD37 fused to human IgG1 Fc-domain) (human); experiment: ELISA, denatured-reduced hCD37-Fc-LAGA coated on the plate, antibody at 5 µg/mL
# [5] = biological target: hCD37-LEL (Large Extracellular Loop; amino acids 107 to 242 of human CD37 with a 6xHis-tag) (human); experiment: ELISA, denatured hCD37-LEL coated on the plate, antibody at 2.5 µg/mL
# [6] = biological target: hCD37-Fc-LAGA (amino acids 107 to 235 of human CD37 fused to human IgG1 Fc-domain) (human); experiment: ELISA, native hCD37-Fc-LAGA coated on the plate, antibody at 10 µg/mL
# [7] = biological target: hCD37-Fc-LAGA (amino acids 107 to 235 of human CD37 fused to human IgG1 Fc-domain) (human); experiment: ELISA, native hCD37-Fc-LAGA coated on the plate, antibody at 5 µg/mL
# [8] = biological target: hCD37-LEL (Large Extracellular Loop; amino acids 107 to 242 of human CD37 with a 6xHis-tag) (human); experiment: ELISA, native hCD37-LEL coated on the plate, antibody at 10 µg/mL
# [9] = biological target: hCD37-Fc-LAGA (amino acids 107 to 235 of human CD37 fused to human IgG1 Fc-domain) (human); experiment: ELISA, denatured hCD37-Fc-LAGA coated on the plate, antibody at 10 µg/mL
# [10] = biological target: hCD37-ECD-Fc (amino acids 107 to 235 of human CD37 fused to murine IgG2a Fc-domain) (human); experiment: ELISA, denatured hCD37-ECD-Fc coated on the plate, antibody at 10 µg/mL
# [11] = biological target: hCD37-Fc-LAGA (amino acids 107 to 235 of human CD37 fused to human IgG1 Fc-domain) (human); experiment: ELISA, denatured hCD37-Fc-LAGA coated on the plate, antibody at 2.5 µg/mL
# [12] = biological target: hCD37-Fc-LAGA (amino acids 107 to 235 of human CD37 fused to human IgG1 Fc-domain) (human); experiment: ELISA, native hCD37-Fc-LAGA coated on the plate, antibody at 2.5 µg/mL; remark: listed apart in the source
# [13] = biological target: hCD37-LEL (Large Extracellular Loop; amino acids 107 to 242 of human CD37 with a 6xHis-tag) (human); experiment: ELISA, native hCD37-LEL coated on the plate, antibody at 5 µg/mL
# [14] = biological target: hCD37-LEL (Large Extracellular Loop; amino acids 107 to 242 of human CD37 with a 6xHis-tag) (human); experiment: ELISA, native hCD37-LEL coated on the plate, antibody at 2.5 µg/mL
# [15] = biological target: hCD37-ECD-Fc (amino acids 107 to 235 of human CD37 fused to murine IgG2a Fc-domain) (human); experiment: ELISA, denatured hCD37-ECD-Fc coated on the plate, antibody at 5 µg/mL
# [16] = biological target: hCD37-ECD-Fc (amino acids 107 to 235 of human CD37 fused to murine IgG2a Fc-domain) (human); experiment: ELISA, denatured hCD37-ECD-Fc coated on the plate, antibody at 2.5 µg/mL
# [17] = biological target: hCD37-Fc-LAGA (amino acids 107 to 235 of human CD37 fused to human IgG1 Fc-domain) (human); experiment: ELISA, denatured-reduced hCD37-Fc-LAGA coated on the plate, antibody at 10 µg/mL
# [18] = biological target: hCD37-ECD-Fc (amino acids 107 to 235 of human CD37 fused to murine IgG2a Fc-domain) (human); experiment: ELISA, native hCD37-ECD-Fc coated on the plate, antibody at 2.5 µg/mL
# [19] = biological target: hCD37-LEL (Large Extracellular Loop; amino acids 107 to 242 of human CD37 with a 6xHis-tag) (human); experiment: ELISA, denatured-reduced hCD37-LEL coated on the plate, antibody at 5 µg/mL
# [20] = biological target: hCD37-LEL (Large Extracellular Loop; amino acids 107 to 242 of human CD37 with a 6xHis-tag) (human); experiment: ELISA, native hCD37-LEL coated on the plate, antibody at 5 µg/mL; remark: listed apart in the source
# [21] = biological target: hCD37-LEL (Large Extracellular Loop; amino acids 107 to 242 of human CD37 with a 6xHis-tag) (human); experiment: ELISA, native hCD37-LEL coated on the plate, antibody at 2.5 µg/mL; remark: listed apart in the source
# [22] = biological target: hCD37-LEL (Large Extracellular Loop; amino acids 107 to 242 of human CD37 with a 6xHis-tag) (human); experiment: ELISA, denatured hCD37-LEL coated on the plate, purified antibody titrated
# [23] = biological target: hCD37-ECD-Fc (amino acids 107 to 235 of human CD37 fused to murine IgG2a Fc-domain) (human); experiment: ELISA, native hCD37-ECD-Fc coated on the plate, antibody at 5 µg/mL
# [24] = biological target: hCD37-Fc-LAGA (amino acids 107 to 235 of human CD37 fused to human IgG1 Fc-domain) (human); experiment: ELISA, native hCD37-Fc-LAGA coated on the plate, antibody at 5 µg/mL; remark: listed apart in the source
# [25] = biological target: hCD37-LEL (Large Extracellular Loop; amino acids 107 to 242 of human CD37 with a 6xHis-tag) (human); experiment: ELISA, denatured hCD37-LEL coated on the plate, antibody at 10 µg/mL
# [26] = biological target: hCD37-LEL (Large Extracellular Loop; amino acids 107 to 242 of human CD37 with a 6xHis-tag) (human); experiment: ELISA, native hCD37-LEL coated on the plate, antibody at 10 µg/mL; remark: listed apart in the source
# [27] = biological target: hCD37-Fc-LAGA (amino acids 107 to 235 of human CD37 fused to human IgG1 Fc-domain) (human); experiment: ELISA, denatured-reduced hCD37-Fc-LAGA coated on the plate, antibody at 2.5 µg/mL
# [28] = biological target: hCD37-LEL (Large Extracellular Loop; amino acids 107 to 242 of human CD37 with a 6xHis-tag) (human); experiment: ELISA, denatured hCD37-LEL coated on the plate, antibody at 5 µg/mL
# [29] = biological target: hCD37-Fc-LAGA (amino acids 107 to 235 of human CD37 fused to human IgG1 Fc-domain) (human); experiment: ELISA, denatured hCD37-Fc-LAGA coated on the plate, antibody at 5 µg/mL
# [30] = biological target: hCD37-Fc-LAGA (amino acids 107 to 235 of human CD37 fused to human IgG1 Fc-domain) (human); experiment: ELISA, native hCD37-Fc-LAGA coated on the plate, antibody at 10 µg/mL; remark: listed apart in the source
# [31] = biological target: hCD37-Fc-LAGA (amino acids 107 to 235 of human CD37 fused to human IgG1 Fc-domain) (human); experiment: ELISA, native hCD37-Fc-LAGA coated on the plate, purified antibody titrated (left panel)
# [32] = biological target: hCD37-ECD-Fc (amino acids 107 to 235 of human CD37 fused to murine IgG2a Fc-domain) (human); experiment: ELISA, native hCD37-ECD-Fc coated on the plate, antibody at 10 µg/mL
# hCD37-LEL (Large Extracellular Loop; amino acids 107 to 242 of human CD37 with a 6xHis-tag) (human), sequence (chain, as listed by the source limits assumed): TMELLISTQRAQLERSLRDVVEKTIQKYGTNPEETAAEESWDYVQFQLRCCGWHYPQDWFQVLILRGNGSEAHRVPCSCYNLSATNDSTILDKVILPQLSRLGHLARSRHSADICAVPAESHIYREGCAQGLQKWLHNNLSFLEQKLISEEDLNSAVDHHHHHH
# hCD37-Fc-LAGA (amino acids 107 to 235 of human CD37 fused to human IgG1 Fc-domain) (human), sequence (chain, as listed by the source limits assumed): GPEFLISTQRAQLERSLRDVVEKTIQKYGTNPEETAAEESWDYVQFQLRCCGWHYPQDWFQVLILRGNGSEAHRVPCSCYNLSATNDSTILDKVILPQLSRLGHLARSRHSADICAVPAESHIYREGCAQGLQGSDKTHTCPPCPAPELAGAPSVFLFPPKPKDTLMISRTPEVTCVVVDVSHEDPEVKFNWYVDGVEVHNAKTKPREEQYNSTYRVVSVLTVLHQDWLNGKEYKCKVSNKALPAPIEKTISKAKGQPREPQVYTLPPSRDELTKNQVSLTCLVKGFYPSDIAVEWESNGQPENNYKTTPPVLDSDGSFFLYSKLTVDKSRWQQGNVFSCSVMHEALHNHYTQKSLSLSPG
# hCD37-ECD-Fc (amino acids 107 to 235 of human CD37 fused to murine IgG2a Fc-domain) (human), sequence (chain, as listed by the source limits assumed): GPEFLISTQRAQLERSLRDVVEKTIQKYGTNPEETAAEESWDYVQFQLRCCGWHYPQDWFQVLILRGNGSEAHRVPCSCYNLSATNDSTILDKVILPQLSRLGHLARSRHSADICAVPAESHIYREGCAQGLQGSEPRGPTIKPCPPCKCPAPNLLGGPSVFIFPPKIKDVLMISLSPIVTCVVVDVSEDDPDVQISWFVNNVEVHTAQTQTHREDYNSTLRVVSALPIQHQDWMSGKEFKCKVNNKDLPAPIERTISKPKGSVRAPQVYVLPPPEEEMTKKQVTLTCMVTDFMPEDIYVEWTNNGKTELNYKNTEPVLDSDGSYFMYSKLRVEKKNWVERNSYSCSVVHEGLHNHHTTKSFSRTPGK
substance,measurement,setting,value
"NCL-CD37 mouse monoclonal anti-CD37 antibody (clone CT1, Leica Biosystems)",ELISA absorbance at 450 nm,[1],2.4
same,ELISA absorbance at 450 nm,[2],3.3
same,ELISA absorbance at 450 nm,[3],3.2
same,ELISA absorbance at 450 nm,[4],3.2
same,ELISA absorbance at 450 nm,[5],1.8
same,ELISA absorbance at 450 nm,[6],2.9
same,ELISA absorbance at 450 nm,[7],2.5
same,ELISA absorbance at 450 nm,[8],3
same,ELISA absorbance at 450 nm,[9],3.2
same,ELISA absorbance at 450 nm,[10],3.1
same,ELISA absorbance at 450 nm,[11],3.1
same,ELISA absorbance at 450 nm,[12],2.1
same,ELISA absorbance at 450 nm,[13],2.4
same,ELISA absorbance at 450 nm,[14],2
same,ELISA absorbance at 450 nm,[15],3.1
same,ELISA absorbance at 450 nm,[16],3.1
same,ELISA absorbance at 450 nm,[17],3.3
same,ELISA absorbance at 450 nm,[18],2.2
same,ELISA absorbance at 450 nm,[19],3.2
same,ELISA absorbance at 450 nm,[20],3
same,ELISA absorbance at 450 nm,[21],3
same,EC50 (read off the curve),[22],0.1 nM
same,ELISA absorbance at 450 nm,[23],2.4
same,ELISA absorbance at 450 nm,[24],2.6
same,ELISA absorbance at 450 nm,[25],2.8
same,ELISA absorbance at 450 nm,[26],2.7
same,ELISA absorbance at 450 nm,[27],3.2
same,ELISA absorbance at 450 nm,[28],2
same,ELISA absorbance at 450 nm,[29],3.1
same,ELISA absorbance at 450 nm,[30],2.8
same,EC50 (read off the curve),[31],3 nM
same,ELISA absorbance at 450 nm,[32],2.7

# — patent US20180244795A1
